The test system of this data set is MS2 coat protein. As to the kind of experiment: apparent KD of MS2 coat protein; designed switch direction (-1 OFF switch, 1 ON switch): -1; higher = weaker reporter binding. Summed up: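 For each design, the apparent KD is the median over clusters of curves fitted to normalised cluster fluorescence. Clusters held RNA switches with common flanks, transcribed on Illumina chips by stalled E. coli RNA polymerase. These were titrated with SNAP-549-labelled MS2 coat protein, doubling from 0.7 or 1.5 nM to 3 µM, without input, with 200 uM small-molecule ligand, or with an oligonucleotide input.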

Where [1] appears, read: input ligand: microRNA oligo, concentration not stated.
Where [2] appears, read: Eterna round: R95, input ligand: FMN 200 uM.
Where [3] appears, read: Eterna round: R95, input ligand: microRNA oligo, concentration not stated.
Where [4] appears, read: Eterna round: R95, input ligand: none.

In the case of “AGAUCACAUGAGGAUCACCCAUGUCAGGAUAUCAUCAUUGAAGCUGCGGCUUCAAUGAUGAGAAGGGACAUAAU [E1/2-B3] (Eterna round: R97, puzzle: Exclusion 1)”, the “apparent KD of MS2 coat protein” value (input ligand: FMN 200 uM) is 105 nM and the “apparent KD of MS2 coat protein” value (input ligand: none) is 412 nM.
In the case of “GCAGCUAAUGCAGGAUAUCAGCACGAUUAGUGCUGAGAAGGGCACAUGAGGAUCACCCAUGUGAUCAAUUAAUAUUAAUGCUGC [ENG1/11-B1] (Eterna round: R96, puzzle: Exclusion NG 1)”, the “apparent KD of MS2 coat protein” value was 184 nM (input ligand: FMN 200 uM), 24 nM under setting [1] and 25.1 nM (input ligand: none).
As for “AGUAGAUCUACGCUUGCGUGGAUCUGCUAUGCAGGUGUUACAUGAGGAUCACCCAUGUCCUCAUUUGUUCGUCUUAU [JL turnoff v2 99.15] (puzzle: Sensor v3, turn-off variant 2)”, the “apparent KD of MS2 coat protein” value turned out to be 135 nM under setting [2], 111 nM under setting [3] and 185 nM under setting [4].
As for “AAUGAGCUAGGAUAUACAUGAGGAUCACCCAUGUAAAAUAGGUCAUGGAUGAACCACUGUAGAAGGAGCAGGGC [Ateseszave] (puzzle: Exclusion 3)”, the “apparent KD of MS2 coat protein” value under setting [2] was 95.6 nM, the “apparent KD of MS2 coat protein” value under setting [3] came to 146 nM and the “apparent KD of MS2 coat protein” value under setting [4] was 105 nM.
On to “AACCCGAUAGGAUAUACUUGAGGAUCACCCAAGUACGCCUGCAAUGCAAGCGCCUGAAGUAGAAGGAUCAAAAG [Gexetele] (Eterna round: R97, puzzle: Exclusion 3)”, for which the “apparent KD of MS2 coat protein” value came to 21 nM (input ligand: FMN 200 uM) and 31.1 nM (input ligand: none).
In the case of “GGCGCACAUGAGGAUCACCCAUGUGAGGAUAUUAGGCGAUCGUCGAAAGACGAUAGCCUGAGAAGGCACAUGCC [Eli x1 4.19] (Eterna round: R97, puzzle: Exclusion 1)”, the “apparent KD of MS2 coat protein” value is 154 nM (input ligand: FMN 200 uM) and 33.1 nM (input ligand: none).
The like results for “AAGUUACAUGAGGAUCACCCAUGUGAGGAUAUGAGUCAGUCACGGUGACGUGGCUGACUCAGAAGGCACAAUGG [JL-ex1-4.41 salish99 mod] (Eterna round: R97, puzzle: Exclusion 1)” were, in that order, 43 nM and 290 nM.
The like results for “GCUUCGGCAGGAUAUACAAGCUUCGGCUGAAAAGUUGAAGUACAUGAGGAUCACCCAUGUAGAAGGGUUGAAGU [-25.7, -24.2 kcal, A 32% 3 bis, 3 bis] (Eterna round: R97, puzzle: Exclusion 2)” were, in that order, 45.6 nM and 60.1 nM.
The matching figures for “AAUUAGUGUGUGAGGAUAUUGGUGGAAUGACUUAUUAAGAAGGCACAUGAGGAUCACCCAUGUGGGAAGUCACG [JR_BMEx4_Sub014] (Eterna round: R97, puzzle: Brourd's mod of Exclusion 4)”: 10.1 nM and 12 nM.
For “GCAGGAUAAGUGAGGAUAUACCUCUGGAUACAGAGGUAGAAGGCACAUGAGGAUCACCCAUGUCUAUCACCUGC [Fiskers BMX 4 - 78] (puzzle: Brourd's mod of Exclusion 4)”, the “apparent KD of MS2 coat protein” value under setting [3] turned out to be 14.5 nM.
In the case of “CUGUUCCGUGUAGGAUAUGCAUAUUCUCAUUAUGCAGAAGGACAUGAGGAUCACCCAUGUAUGUUAUUAUCAUAUGUUACAUGU [Design 5] (Eterna round: R96, puzzle: Exclusion NG 1)”, under setting [1], the “apparent KD of MS2 coat protein” value was determined as 29.7 nM.
Take “UAUUAGCUAGGAUAUACAUGAGGAUCACCCAUGUCACGGGUCCACUCAUCCUAUGCGUGUAGAAGGAGCGACCC [JL Ceriza mod 1] (puzzle: Exclusion 3)”: under setting [3], the “apparent KD of MS2 coat protein” value is 23.6 nM.
Take “GGGUGACAUGAGGAUCACCCAUGUCAGGAUAUGGGCCCGGGCCCGAAAGGGCCCGGGCCCAGAAGGGACUGCCC [-52, -51 kcal, 22%A] (Eterna round: R97, puzzle: Exclusion 1)”: the “apparent KD of MS2 coat protein” value (input ligand: FMN 200 uM) is 151 nM and the “apparent KD of MS2 coat protein” value (input ligand: none) came to 46.5 nM.

For the origin of these results see the supplement of paper PMC9170038.
